{"source": "patent US7700353B2", "about": "“Compositions and methods for inducing apoptosis in tumor cells” (E-P Therapeutics, Inc., priority 1998, dated 2010)", "key": {"[1]": {"system": "ZR75-1 and MDA-MB 231 cell lines (single-cell clones)", "experiment": "Morphological change in single-cell malignant clones", "assay_type": "cell-based, human", "experimental": "Because each of these tumor cell lines obtained from ATCC contains a mixed population of tumorous and nontumorous cells, only between 25-40% of the cells from each cell line responded to induction by rtEa-4-peptide. […] About 1 -2×10^5 cells resuspended in their respective basal medium without FBS were plated in a 6-well culture chamber. Different amounts of trout Ea-4-peptide (0.4 µM, 0.8 µM and 1.6 µM) or control protein (1.6 µM) were added to the wells, and the cell cultures were incubated at 37° C. under a humidified atmosphere of 5% CO2. Twenty-four hours after initiation of the treatment, cells were observed under an Olympic inverted microscope equipped with phase contrast objective lenses (200× magnification)."}, "[2]": {"system": "MCF-7, HT-29, HepG2, ZR-75-1, SK-N-F1, or HC cells", "experiment": "Morphological change assay in tumor cell lines", "assay_type": "cell-based, human and fish", "experimental": "Approximately 1-2×10^5 of MCF-7, ZR-75-1, HT-29, HepG2, 293GP, HC or SK-N-F1 cells re-suspended in their respective basal medium without fetal bovine serum (FBS) were plated in a 6-well culture chamber. Prior to plating cells, an acid-washed coverslip was placed in each well of the culture chamber. Recombinant rainbow trout E-peptides (rtEa-2, rtEa-3 or rtEa-4 peptide at 0.8 µM), human IGF-I (hIGF-1, 2.5 nM) or the same amount of control protein was added to each well and the cell cultures were incubated at 37° C. under a humidified atmosphere of 5% CO2. The control protein was prepared from E. coli cells carrying the expression plasmid but without the E-peptide gene according to the purification method described by Tian et al. (1999). Coverslips were removed from the culture chamber 24 hours after initiation of the treatment and observed under an Olympic inverted microscope equipped with differential interference phase contrast objective lenses or phase contrast objective lens (final magnification, 200×). The morphological change assay was performed at least 10 times with different batches of Ea-4 peptide preparations.\nOncogenic transformed or established cancer cells derived from human and fish (MCF-7, HT-29, HepG2, ZR-75-1, SK-N-F1, or HC cells) were plated in their respective serum-free basal medium supplemented with 0.8 µM of the trout recombinant Ea-4-peptide, with the control protein, or with 2.5 nM of the recombinant hlGF-I and the cultures were examined 24 hours later under an inverted microscope equipped with differential interference phase contrast objectives. […] The rtEa-4 peptide treated cells developed several pseudopodia-like structures to establish contact with neighboring cells similar to that seen in untransformed or non-malignant cells.\nBecause each of these tumor cell lines obtained from ATCC contains a mixed population of tumorous and nontumorous cells, only between 25-40% of the cells from each cell line responded to induction by rtEa-4-peptide. […]"}}, "data": [{"molecule": "rtEa-4: recombinant Ea-4 peptide of rainbow trout pro-IGF-I, 74 amino acid residues (SEQ ID NO: 2) (protein, Oncorhynchus mykiss) RSVRAQRHTDMPRTPKVSTAVQNVDRGTERRTAQHPDKTKTKKKPLSGHSHPSCKEVHQKNSSRGNTGGRNYRM", "values": [{"measurement": "extent of the morphological change", "setting": "[1]; 0.4 to 1.6 μM", "result": "proportional to the amounts"}, {"measurement": "cells responsive to treatment", "setting": "[1]; purified single-cell clones, 0.4-1.6 μM, 24 hours", "result": "~95", "unit": "%"}, {"measurement": "morphological change", "setting": "[2]; 0.8 μM, 24 hours, serum-free basal medium", "result": "flattened out and attached tightly to the culture dish"}, {"measurement": "cells from each cell line responding to induction", "setting": "[2]; mixed population cell lines from ATCC", "result": "25-40%"}]}]}
